Data as given in US20090188010A1.

Columns and labels:
[1] = biological target: NaPI-insensitive chymotrypsin from H. punctigera (HpCh5), native enzyme from the larval gut (Helicoverpa punctigera); assay: cell-based or functional assay
[2] = biological target: chymotrypsins in unfractionated gut extracts from H. punctigera larvae; assay: cell-based or functional assay

Chain of NaPI-insensitive chymotrypsin from H. punctigera (HpCh5), native enzyme from the larval gut (Helicoverpa punctigera) (chain, as listed by the source limits assumed): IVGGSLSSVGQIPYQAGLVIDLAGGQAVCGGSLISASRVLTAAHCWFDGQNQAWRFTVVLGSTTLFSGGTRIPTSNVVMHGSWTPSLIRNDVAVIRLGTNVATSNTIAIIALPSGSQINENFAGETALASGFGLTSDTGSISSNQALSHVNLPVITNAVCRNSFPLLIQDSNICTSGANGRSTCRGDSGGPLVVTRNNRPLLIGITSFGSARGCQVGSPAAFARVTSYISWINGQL

| inhibition of SA2PFpNA or SA2PLpNA hydrolysis at 300 nM inhibitor [1] [%] | inhibition of SA2PMpNA hydrolysis [1] [%] | inhibition of gut chymotrypsin activity, unfractionated gut extract (FIG. 3) [2] [%] | Binder |
| --- | --- | --- | --- |
| > 75 | 40 | – | StPotIB, bacterially expressed with N-terminal 6xHis-tag (protein, not shown: small tags and cut ends) KEFECNGKQFWPELIGVPTKLAKEIIEKENSLINNVQILLNGSPVTMDYRCNRVRLFDNILGSVVQIPRVA |
| – | – | 70 | recombinant C1 inhibitor with N-terminal hexahistidine tag, expressed in E. coli (protein, not shown: small tags and cut ends) DRICTNCCAGTKGCKYFSDDGTFVCEGESDPRNPKACTLNCDPRIAYGVCPRSEEKKN |
| > 75 | 40 | – | StPotIA, bacterially expressed with N-terminal 6xHis-tag (protein, not shown: small tags and cut ends) KESESESWCKGKQFWPELIGVPTKLAKEIIEKENPSINDVPIILNGTPVPADFRCNRVRLFDNILGDVVQIPRVA |
